Reference: patent publication US20170137818, “APTAMER INHIBITING BIOLOGICAL ACTIVITY OF AUTOTAXIN BY BINDING WITH AUTOTAXIN, AND USE THEREOF” (RIBOMIC INC., published 2017)

Biological target: T1, autotaxin (endogenous, human pooled serum) (Homo sapiens, UniProt Q13822 Q13822:36-863)
Assay: inhibition; LPA production in serum, 0.10 uM
Conditions: not given

Binder | activity [% inhibition]
CCTGGACGGAACCAGAATACTTTTGGTCTCCAGG (ssDNA, 2'-OMe C7,G9,A14,G15,A19,C20,A32,G33,G34; P-methyl C12 (between C12 and C13); 5' idT, 3' idT) [12(61)] | 91
CCTGGACGGAACCAGAATACTTTTGGTCTCCAGG (ssDNA, 2'-OMe C7,G9,A14,G15,A19,C20,A32,G33,G34; P-methyl G8,C12; 5' idT, 3' idT) [12(118)] | 98
CCTGGACGGAACCAGAATACTTTTGGTCTCCAGG (ssDNA, 2'-OMe C7,G9,A14,G15,A19,C20,A32,G33,G34; P-methyl G8,C12,C28; 5' idT, 3' idT) [12(119)] | 97
CCTGGACGGAACCAGAATACTTTTGGTCTCCAGG (ssDNA, 2'-OMe C7,G9,A14,G15,A19,C20,A32,G33,G34; PS between G8 and G9; 5' idT, 3' idT) [12(77)] | 88
CCTGGACGGAACCAGAATACTTTTGGTCTCCAGG (ssDNA, 2'-OMe C7,G9,A14,G15,A19,C20,A32,G33,G34; P-methyl G8; 5' 40 kDa PEG via ssH linker, 3' idT) [12(131)] | 91
CCTGGACGGAACCAGAATACTTTTGGTCTCCAGG (ssDNA, 2'-OMe C7,G9,A14,G15,A19,C20,A32,G33,G34; PS between G9 and A10; 5' idT, 3' idT) [12(105)] | 25
CCTGGACGGAACCAGAATACTTTTGGTCTCCAGG (ssDNA, 2'-OMe C7,G9,A14,G15,A19,C20,A32,G33,G34; P-methyl T27; 5' idT, 3' idT) [12(97)] | 7
CCTGGACGGAACCAGAATACTTTTGGTCTCCAGG (ssDNA, 2'-OMe C7,G9,A14,G15,A19,C20,A32,G33,G34; P-methyl G8; 5' idT, 3' idT) [12(92)] | 91

Biological target: T2, autotaxin (ENPP2/NPP2) (Homo sapiens, UniProt Q13822 Q13822:36-863)
Assay: SPR; not more than 10% of SEQ 12 signal; aptamer 0.3 uM; solution A
Conditions: not given

Binder | binding result
CCTGGACGGAACCAATACTTGGTCTCCAGG (ssDNA) [SEQ 15 aptamer] | no binding

Biological target: FGF2 (UniProt P09038 P09038:135-288)
Assay: SPR; specificity control; FGF2 immobilized, aptamer 0.3 uM; solution A
Conditions: tags: PeproTech

Sequence of FGF2 (P09038 135-288, one chain of several): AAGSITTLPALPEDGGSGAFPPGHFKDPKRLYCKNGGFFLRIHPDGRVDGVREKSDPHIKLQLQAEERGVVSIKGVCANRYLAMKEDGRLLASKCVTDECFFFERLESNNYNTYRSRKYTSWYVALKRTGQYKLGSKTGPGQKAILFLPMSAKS

Binder | binding result
CCTGGACGGAACCAGAATACTTTTGGTCTCCAGG (ssDNA, 2'-OMe C7,G9,A14,G15,A19,C20,A32,G33,G34; 5' 40 kDa PEG (GL2-400GS2) via ssH linker, 3' idT) [12(48)] | no binding

Biological target: T2, autotaxin (ENPP2/NPP2)
Assay: inhibition; LysoPLD assay, 2 mM 14:0 LPC, 2.1 nM autotaxin, 37 C
Conditions: not given

Binder | IC50 [nM]
CCTGGACGGAACCAGAATACTTTTGGTCTCCAGG (ssDNA, 2'-OMe C7,G9,A14,G15,A19,C20,A32,G33,G34; P-methyl C1,G5,G8,C12,A16,T21,T23,C28,C30,C31,G34; 5' 40 kDa PEG via ssH linker, 3' idT) [12(144)] | 1.6
CCTGGACGGAACCAGAATACTTTTGGTCTCCAGG (ssDNA, 2'-OMe C7,G9,A14,G15,A19,C20,A32,G33,G34; P-methyl G5,G8,C12,A16,T21,T23,C28,C30,C31,G34; 5' idT, 3' idT) [12(149)] | 6.1

Biological target: T2, autotaxin (ENPP2/NPP2)
Assay: inhibition; NPP2 assay per text (column headed LysoPLD)
Conditions: not given

Binder | IC50 [nM]
CCTGGACGGAACCAGAATACTTTTGGTCTCCAGG (ssDNA, 2'-OMe C7,G9,A14,G15,A19,C20,A32,G33,G34; P-butoxy between C12 and C13; 5' idT, 3' idT) [12(152)] | 0.23
CCTGGACGGAACCAGAATACTTTTGGTCTCCAGG (ssDNA, 2'-OMe C7,G9,A14,G15,A19,C20,A32,G33,G34; P-propoxy between C12 and C13; 5' idT, 3' idT) [12(151)] | 0.32
CCTGGACGGAACCAGAATACTTTTGGTCTCCAGG (ssDNA, 2'-OMe C7,G9,A14,G15,A19,C20,A32,G33,G34; P-isopropoxy between C12 and C13; 5' idT, 3' idT) [12(150)] | 0.17

Biological target: T2, autotaxin (ENPP2/NPP2)
Assay: inhibition; NPP2 assay, pNP-TMP, 37 C
Conditions: not given

Binder | IC50 [nM]
CCTGGACGGAACCAGAATACTTTTGGTCTCCAGG (ssDNA, 2'-OMe C7,G9,A14,G15,A19,C20,A32,G33,G34; 3' idT) [12(148)] | 6.8

Biological target: T2, autotaxin (ENPP2/NPP2)
Assay: inhibition; LPA production, 1.0 uM aptamer, ~92% serum, 37C 3 h
Conditions: not given

Binder | activity [% inhibition]
CCTGGACGGAACCAGAATACTTTTGGTCTCCAGG (ssDNA, 2'-OMe C1,C7,G9,C13,A14,G15,A19,C20,A32,G33,G34; idT 5' and 3') [12(46)] | 83
CCTGGACGGAACCAGAATACTTTTGGTCTCCAGG (ssDNA, 2'-OMe C1,G5,C7,G9,C13,A14,G15,A19,C20,A32,G33,G34; idT 5' and 3') [12(44)] | 87
CCTGGACGGAACCAGAATACTTTTGGTCTCCAGG (ssDNA, 2'-OMe C1,C7,G9,C12,A14,G15,A19,C20,A32,G33,G34; idT 5' and 3') [12(45)] | 86
CCTGGACGGAACCAGAATACTTTTGGTCTCCAGG (ssDNA, 2'-OMe C1,G5,C7,G9,C12,A14,G15,A19,C20,A32,G33,G34; idT 5' and 3') [12(43)] | 85
CCTGGACGGAACCAGAATACTTTTGGTCTCCAGG (ssDNA, 2'-OMe C1,G5,C7,G9,C12,C13,A14,G15,A19,C20,C30,A32,G33,G34; idT 5' and 3') [12(47)] | 57

Biological target: T1, autotaxin (endogenous, human pooled …)
Assay: inhibition; LPA production in serum, 1.0 uM
Conditions: not given

Binder | activity [% inhibition]
CCTGGACGGAACCAGAATACTTTTGGTCTCCAGG (ssDNA, 2'-OMe C7,G9,A14,G15,A19,C20,A32,G33,G34; 5' 40 kDa PEG (GL2-400GS2) via ssH linker, 3' idT) [12(48)] | 92
CCTGGACGGAACCAGAATACTTTTGGTCTCCAGG (ssDNA, 2'-OMe C1,G5,C7,G9,C12,C13,A14,G15,A19,C20,A32,G33,G34; 5' idT, 3' idT) [12(42)] | 68

Biological target: T2, autotaxin (ENPP2/NPP2)
Assay: inhibition; NPP2 assay, 37 C; no SPR binding
Conditions: not given

Binder | IC50 [nM]
CCTGGACGGAACCAATACTTGGTCTCCAGG (ssDNA) [SEQ 15 aptamer] | 990

Biological target: T1, autotaxin (endogenous, human pooled …)
Assay: inhibition; LPA production in serum, 0.025 uM
Conditions: not given

Binder | activity [% inhibition]
CCTGGACGGAACCAGAATACTTTTGGTCTCCAGG (ssDNA, 2'-OMe C7,G9,A14,G15,A19,C20,A32,G33,G34; P-methyl C1,G5,G8,C12,A16,T21,T23,C28,C30,C31,G34; 5' 40 kDa PEG via ssH linker, 3' idT) [12(144)] | 87
